# Experimental data as given in patent US20260008852A1 (CRYSTAL BIOSCIENCE, published 2026).
# Positions count from the first letter of the chain named.
# T1: His-tagged human B7-H3 (human, UniProt Q5ZPR3-2 29-245, limits assumed)
# T1 construct: Bought His-tagged protein coated on the ELISA plate; also called hu B7-H3; CD276
# T1 sequence (looked up): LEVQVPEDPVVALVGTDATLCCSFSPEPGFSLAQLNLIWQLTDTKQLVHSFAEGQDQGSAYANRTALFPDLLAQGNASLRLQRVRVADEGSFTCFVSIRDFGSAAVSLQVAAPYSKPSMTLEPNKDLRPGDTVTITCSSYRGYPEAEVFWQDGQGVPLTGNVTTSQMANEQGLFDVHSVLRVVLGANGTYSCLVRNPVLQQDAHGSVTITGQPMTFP
# T2: His-tagged mouse B7-H3 (mouse, UniProt Q8VE98 29-244, limits assumed)
# T2 construct: Bought His-tagged protein coated on the ELISA plate; also called mu B7-H3; murine B7-H3
# T2 sequence (looked up): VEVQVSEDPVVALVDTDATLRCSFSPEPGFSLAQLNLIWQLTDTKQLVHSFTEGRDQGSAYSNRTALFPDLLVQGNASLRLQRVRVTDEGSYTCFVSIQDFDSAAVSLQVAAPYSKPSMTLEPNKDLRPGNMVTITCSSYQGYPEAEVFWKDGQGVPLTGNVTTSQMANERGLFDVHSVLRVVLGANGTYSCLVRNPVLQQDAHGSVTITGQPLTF
# T3: His-tagged cynomolgus monkey B7-H3 (cynomolgus monkey)
# T3 chain: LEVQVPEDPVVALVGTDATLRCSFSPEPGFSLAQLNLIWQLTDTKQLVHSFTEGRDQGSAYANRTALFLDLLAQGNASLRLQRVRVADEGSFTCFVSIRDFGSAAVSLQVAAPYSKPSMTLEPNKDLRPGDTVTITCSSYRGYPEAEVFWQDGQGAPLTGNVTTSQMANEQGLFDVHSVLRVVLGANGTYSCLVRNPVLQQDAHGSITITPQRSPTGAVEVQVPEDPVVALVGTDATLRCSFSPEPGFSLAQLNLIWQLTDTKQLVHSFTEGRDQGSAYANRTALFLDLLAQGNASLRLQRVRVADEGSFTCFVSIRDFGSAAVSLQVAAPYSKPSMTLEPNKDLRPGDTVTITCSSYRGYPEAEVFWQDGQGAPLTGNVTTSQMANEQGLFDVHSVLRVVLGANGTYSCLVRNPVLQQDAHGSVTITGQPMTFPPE
# T4: B7-H3 on B7-H3-expressing CHO cells (Genescript) (UniProt Q5ZPR3 29-534, limits assumed)
# T4 construct: whole, on cells; also called CHO-K1/B7-H3; MFI B7-H3
# T4 sequence (looked up): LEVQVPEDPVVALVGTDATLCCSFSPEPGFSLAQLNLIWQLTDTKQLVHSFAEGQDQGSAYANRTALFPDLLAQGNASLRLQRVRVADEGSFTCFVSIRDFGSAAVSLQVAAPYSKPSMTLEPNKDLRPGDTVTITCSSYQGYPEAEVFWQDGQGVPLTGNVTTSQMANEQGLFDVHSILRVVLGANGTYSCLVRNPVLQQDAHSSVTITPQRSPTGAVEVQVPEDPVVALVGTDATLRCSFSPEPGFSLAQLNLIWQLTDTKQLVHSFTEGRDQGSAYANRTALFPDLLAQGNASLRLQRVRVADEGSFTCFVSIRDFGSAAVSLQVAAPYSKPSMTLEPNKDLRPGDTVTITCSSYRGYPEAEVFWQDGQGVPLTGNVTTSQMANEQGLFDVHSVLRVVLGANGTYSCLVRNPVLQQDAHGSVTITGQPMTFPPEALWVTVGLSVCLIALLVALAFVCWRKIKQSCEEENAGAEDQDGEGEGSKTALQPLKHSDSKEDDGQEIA
# B1: 40579p1.F7 (scFv, V domains shown)
# VH: EVQLLESGGGLVQPGGSLRLSCAASGFTFSDYYMSWVRQAPGKGLEWVSGISISYGGNAYYADSVKGRFTVSRDNSKNTLYLQMNSLRAEDTAVYYCGRDRSPYQYRSMDVWGQGTTVTVSS
# VL: EIVLTQSPGTLSLSPGERATLTCRASQSVGDFLAWYQQKPGQAPRLLIYGASTRAAGIPARFRGSGSGTDFTLTISSLQSEDFAVYYCQQYKNWPPLTFGGGTKVEIK
# notes: Tested as scFv-Fc (Expi293 supernatant)
# B2: 40579p1.G1 (scFv, V domains shown)
# VH: B1 VH with T28N, D31S, Y33W
# VL: B1 VL with T22S, V29I, G30R, D31S, F32D, T53S, A56T, R63S, D70E, K92N
# notes: as for B1
# B3: 40579p1.H6 (scFv, V domains shown)
# VH: EVQLLESGGGLVQPGGSLRLSCAASGFTVNNAWMSWVRQAPGKGLEWVSAISYGGSIYYADSVKGRFTISRDNSKNTLYLQMNSLRAEDTAVYYCAKHRSTTYNGMDVWGQGTTVTVSS
# VL: B1 VL with T22S, D31S, S52N, A60D, S67N, K92Y, N93D
# notes: as for B1
# B4: 40579p1.H7 (scFv, V domains shown)
# VH: B1 VH with G10D, T28N, D31S, Y33W
# VL: B1 VL with T22S, V29I, G30R, D31S, F32D, T53S, A56T, R63S, D70E, K92N
# notes: as for B1
# B5: 40633p1.2.A8 (scFv, V domains shown)
# VH: EVQLLESGGGLLQPGGSLRLSCAASGFSFSSYGMHWVRQAPGKGLEWVAAINSDGSRIYYADSVKGRFTISRDNSKNTLYLQMNSLRAEDTAVYYCTKYYYHYAMDVWGQGTTVTVSS
# VL: QSVLTQPPSASGTPGQRVTISCSGSRSDIGATTVNWYQQLPGTAPKLLIYQSHLRPSGVPDRFSGSKSGTSASLAISGLQSEDEADYYCASWDASLNTWVFGGGTKLTVL
# notes: as for B1
# B6: 40633p1.1.B12 (scFv, V domains shown)
# VH: B5 VH
# VL: B5 VL with I49T
# notes: as for B1
# B7: 40633p1.2.A10 (scFv, V domains shown)
# VH: EVQLLESGGGLVQPGGSLRLSCAASGFTVSYYGMSWVRQAPGKGLEWVSVIKQDGSEEYYADSVKGRFTISRDNSKNTLYLQMNSLRAEDTAVYYCARHWNDYSNGMNVWGQGTTVTVSS
# VL: QSVLTQPPSASGTPGQRVTISCSGSTSNVGDRYVYWYQQLPGTAPKLLIYLDDQRPSGVPDRFSGSKSGTSASLAISGLQSEDEADYYCASWDASLNGWVFGGGTKLTVL
# notes: as for B1
# B8: 40633p1.2.C3 (scFv, V domains shown)
# VH: B7 VH with V50A, E58K, G106A, G111E
# VL: B7 VL with T26N, D31G, R32N, Y35S, L51R, D52N, D53S, D86V
# notes: as for B1
# B9: 40633p1.2.F3 (scFv, V domains shown)
# VH: B7 VH
# VL: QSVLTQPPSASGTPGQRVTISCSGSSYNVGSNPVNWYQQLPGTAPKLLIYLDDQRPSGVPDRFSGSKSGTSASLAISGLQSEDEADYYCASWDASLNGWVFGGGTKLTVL
# notes: as for B1
# B10: 40633p1.2.E1 (scFv, V domains shown)
# VH: B7 VH with G9R
# VL: B7 VL
# notes: as for B1
# B11: 40633p1.1.A7 (scFv, V domains shown)
# VH: B7 VH with V50A, E58K, G106A
# VL: B7 VL with V29I, D31R, R32E, Y33S, L51T, D52I, D86V
# notes: as for B1
# B12: 40633p1.1.G11 (scFv, V domains shown)
# VH: B7 VH with L86P
# VL: B7 VL
# notes: as for B1
# B13: 40633p1.1.A11 (scFv, V domains shown)
# VH: EVQLLESGGDLVQPGGSLRLSCAASGFTFNTYWMNWVRQAPGKGLEWVAGINSKGGVTYYADSVKGRFTISRDNSKNTLYLQMNSLRAEDTAVYYCADWNDYDIMDVWGQGTTVTVSS
# VL: QSVLTQPPSASGTPGQTITISCSGSSSNVGRRTVNWYQQLPGTAPKLLIYTNAQRPSGVPDRFSGSKSGTSASLAISGLQSEDEADYYCATWDDSLNAWVFGGGTKLTVL
# notes: as for B1
# B14: 40633p1.1.A6 (scFv, V domains shown)
# VH: EVQLLESGGGLVQPGGSLRLSCAASGFSFSNYDMSWVRQAPGKGLEWVAGIRSGSRTYYADSVKGRFTISRDNSKNTLYLQMNSLRAEDTATYYCGRYFNMDVWGQGTTVTVSS
# VL: QSVLTQPPSASGTPGQRVTISCSGSTFNIGTNLVHWYQQLPGTAPKLLIYLTDRRPSGVPDRFSGSKSGTSASLAISGLQSEDEANYYCATWDDSLNSFLFGGGTKLTVL
# notes: as for B1
# B15: 40633p1.2.E11 (scFv, V domains shown)
# VH: B14 VH
# VL: B14 VL with S57P
# notes: as for B1
# Molecular target: T1, His-tagged human B7-H3
# Test: ELISA OD450 on hu B7-H3 over OD450 on mu B7-H3
# Description: (§1) The variable regions of heavy and light chains were cloned and assembled into a single chain Fv-Fc (ScFv-Fc) mammalian expression vector. Sanger sequencing was performed by GeneWiz and sequences were evaluated using DNASTAR Lasergene 15. Unique scFv-Fes were transiently expressed in Expi293 cells (Life Technologies, #A14527) grown in Expi293 Expression Medium (Life Technologies, #A1435101) after transfection using the ExpiFectamine transfection reagent and supplements (Life Technologies, #A14524). Cells were incubated for 3-5 days with shaking at 37° C. in a 5% CO2 humidified incubator.
row,hu:mu ratio,Binder
1,1.32,B1
2,0.966,B2
3,1.28,B3
4,0.971,B4
5,1.11,B5
6,1.04,B6
7,1.06,B7
8,2.01,B8
9,1.03,B9
10,0.961,B10
11,0.991,B11
12,1.12,B12
13,1.63,B13
14,1.49,B14
15,1.5,B15

# Molecular target: T1, His-tagged human B7-H3
# Test: ELISA, coated His-tagged antigen, scFv-Fc 1 ug/ml
# Description: as §1
row,ELISA OD450 @ 1 ug/ml [OD450],Binder
1,2.02,B1
2,1.73,B2
3,1.49,B3
4,1.86,B4
5,2.17,B5
6,1.83,B6
7,2.14,B7
8,1.78,B8
9,1.96,B9
10,1.9,B10
11,1.95,B11
12,2.05,B12
13,2.08,B13
14,1.88,B14
15,2.09,B15

# Molecular target: T2, His-tagged mouse B7-H3
# Test: ELISA, coated His-tagged antigen, scFv-Fc 1 ug/ml
# Description: as §1
row,ELISA OD450 @ 1 ug/ml [OD450],Binder
1,1.53,B1
2,1.79,B2
3,1.17,B3
4,1.92,B4
5,1.95,B5
6,1.75,B6
7,2.02,B7
8,0.886,B8
9,1.91,B9
10,1.98,B10
11,1.97,B11
12,1.83,B12
13,1.27,B13
14,1.26,B14
15,1.4,B15

# Molecular target: T3, His-tagged cynomolgus monkey B7-H3
# Test: ELISA, coated His-tagged antigen, scFv-Fc 1 ug/ml
# Description: as §1
row,ELISA OD450 @ 1 ug/ml [OD450],Binder
1,2.28,B1
2,1.73,B2
3,1.7,B3
4,1.73,B4
5,2.16,B5
6,1.72,B6
7,2.14,B7
8,2.01,B8
9,2.04,B9
10,1.95,B10
11,1.7,B11
12,1.72,B12
13,1.77,B13
14,1.62,B14
15,2.14,B15

# Molecular target: T4, B7-H3 on B7-H3-expressing CHO cells …
# Test: flow cytometry, B7-H3-expressing CHO cells, 10 ug/ml
# Description: Binding of anti-B7-H3 antibodies to cell lines was assessed by flow cytometry. Briefly, approximately 1.5 e5 B7-H3-expressing CHO cells (Genescript) or parent CHO cells (ATCC) were resuspended in FACS buffer (PBS/1% BSA/0.01% NaN3) containing 10 μg/ml of anti-B7-H3 antibodies and incubated for 60 min on ice. […] Cells were then washed twice, resuspended in FACS buffer, and read on an Attune Flow Cytometer (Life Technologies). Data are expressed as Mean Fluorescent Intensities (MFI).
row,MFI @ 10 ug/ml [MFI],Binder
1,64500,B1
2,87100,B2
3,67600,B3
4,74600,B4
5,62200,B5
6,65400,B6
7,63500,B7
8,53100,B8
9,68800,B9
10,64700,B10
11,76400,B11
12,75900,B12
13,64800,B13
14,67800,B14
15,81300,B15
